“And” between values parts separate entries of the source, which are not always exact repeats. Identical values can stand only once.
Columns and labels:
[1] = biological target: Tilapia Lake virus nucleoprotein (TiLV-NP) (Tilapia Lake virus); assay: cryo-EM structure
[2] = biological target: Tilapia Lake virus nucleoprotein (TiLV-NP) (Tilapia Lake virus); assay: mass photometry; apo TiLV-NP at 25 nM; 50 mM HEPES pH 8, 150 mM NaCl, 2 mM TCEP
[3] = biological target: Tilapia Lake virus nucleoprotein (TiLV-NP) (Tilapia Lake virus); assay: mass photometry; RNA-bound TiLV-NP (40-mer vRNA loop) at 25 nM TiLV-NP; 50 mM HEPES pH 8, 150 mM NaCl, 2 mM TCEP
[4] = biological target: Tilapia Lake virus nucleoprotein (TiLV-NP) (Tilapia Lake virus); assay: as above; remark: listed apart in the source
[5] = biological target: Tilapia Lake virus nucleoprotein (TiLV-NP) (Tilapia Lake virus); assay: SEC-MALS; apo TiLV-NP injected at 5 and 3 mg/ml; Superdex 200 Increase 10/300 GL; 50 mM HEPES pH 8, 150 mM NaCl, 2 mM TCEP

“Tilapia Lake virus nucleoprotein (TiLV-NP) (natural protein)” was tested, and the stoichiometry N [1] was 4 and 5 and 6, the stoichiometry N [2] was 3 and 4 and 5 and the stoichiometry N [3] was 5 and 6. For the same substance, the stoichiometry N [4] was 3 and 4 and the stoichiometry N [5] was 3 and 4.

From PMC11850232
